{"source": "paper PMC10501992", "about": "“How Pol α-primase is targeted to replisomes to prime eukaryotic DNA replication” (Molecular Cell, 2023)", "binders": {"B1": {"name": "TIMELESS-TIPIN (human) (complex)", "chain 1": "MDLHMMNCELLATCSALGYLEGDTYHKEPDCLESVKDLIRYLRHEDETRDVRQQLGAAQILQSDLLPILTQHHQDKPLFDAVIRLMVNLTQPALLCFGNLPKEPSFRHHFLQVLTYLQAYKEAFASEKAFGVLSETLYELLQLGWEERQEEDNLLIERILLLVRNILHVPADLDQEKKIDDDASAHDQLLWAIHLSGLDDLLLFLASSSAEEQWSLHVLEIVSLMFRDQNPEQLAGVGQGRLAQERSADFAELEVLRQREMAEKKTRALQRGNRHSRFGGSYIVQGLKSIGERDLIFHKGLHNLRNYSSDLGKQPKKVPKRRQAARELSIQRRSALNVRLFLRDFCSEFLENCYNRLMGSVKDHLLREKAQQHDETYYMWALAFFMAFNRAASFRPGLVSETLSVRTFHFIEQNLTNYYEMMLTDRKEAASWARRMHLALKAYQELLATVNEMDISPDEAVRESSRIIKNNIFYVMEYRELFLALFRKFDERCQPRSFLRDLVETTHLFLKMLERFCRSRGNLVVQNKQKKRRKKKKKVLDQAIVSGNVPSSPEEVEAVWPALAEQLQCCAQNSELSMDSVVPFDAASEVPVEEQRAEAMVRIQDCLLAGQAPQALTLLRSAREVWPEGDVFGSQDISPEEEIQLLKQILSAPLPRQQGPEERGAEEEEEEEEEEEEELQVVQVSEKEFNFLDYLKRFACSTVVRAYVLLLRSYQQNSAHTNHCIVKMLHRLAHDLKMEALLFQLSVFCLFNRLLSDPAAGAYKELVTFAKYILGKFFALAAVNQKAFVELLFWKNTAVVREMTEGYGSLDDRSSSRRAPTWSPEEEAHLRELYLANKDVEGQDVVEAILAHLNTVPRTRKQIIHHLVQMGLADSVKDFQRKGTHIVLWTGDQELELQRLFEEFRDSDDVLGHIMKNITAKRSRARIVDKLLALGLVAERRELYKKRQKKLASSILPNGAESLKDFCQEDLEEEENLPEEDSEEEEEGGSEAEQVQGSLVLSNENLGQSLHQEGFSIPLLWLQNCLIRAADDREEDGCSQAVPLVPLTEENEEAMENEQFQQLLRKLGVRPPASGQETFWRIPAKLSPTQLRRAAASLSQPEEEQKLQPELQPKVPGEQGSDEEHCKEHRAQALRALLLAHKKKAGLASPEEEDAVGKEPLKAAPKKRQLLDSDEEQEEDEGRNRAPELGAPGIQKKKRYQIEDDEDD", "chain 2": "MLEPQENGVIDLPDYEHVEDETFPPFPPPASPERQDGEGTEPDEESGNGAPVRVPPKRTVKRNIPKLDAQRLISERGLPALRHVFDKAKFKGKGHEAEDLKMLIRHMEHWAHRLFPKLQFEDFIDRVEYLGSKKEVQTCLKRIRLDLPILHEDFVSNNDEVAENNEHDVTSTELDPFLTNLSESEMFASELSRSLTEEQQQRIERNKQLALERRQAKLLSNSQTLGNDMLMNTPRAHTVEEVNTDEDQKEESNGLNEDILDNPCNDAIANTLNEEETLLDQSFKNVQQQLDATSRNITEAR", "notes": "TIPIN, human; source: purified (Strep-Tactin XT resin, TEV protease, HiTrap Q HP, Superdex 200)"}, "B2": {"name": "POLA2 (human Pol α accessory subunit) (natural protein)", "chain": "MSASAQQLAEELQIFGLDCEEALIEKLVELCVQYGQNEEGMVGELIAFCTSTHKVGLTSEILNSFEHEFLSKRLSKARHSTCKDSGHAGARDIVSIQELIEVEEEEEILLNSYTTPSKGSQKRAISTPETPLTKRSVSTRSPHQLLSPSSFSPSATPSQKYNSRSNRGEVVTSFGLAQGVSWSGRGGAGNISLKVLGCPEALTGSYKSMFQKLPDIREVLTCKIEELGSELKEHYKIEAFTPLLAPAQEPVTLLGQIGCDSNGKLNNKSVILEGDREHSSGAQIPVDLSELKEYSLFPGQVVIMEGINTTGRKLVATKLYEGVPLPFYQPTEEDADFEQSMVLVACGPYTTSDSITYDPLLDLIAVINHDRPDVCILFGPFLDAKHEQVENCLLTSPFEDIFKQCLRTIIEGTRSSGSHLVFVPSLRDVHHEPVYPQPPFSYSDLSREDKKQVQFVSEPCSLSINGVIFGLTSTDLLFHLGAEEISSSSGTSDRFSRILKHILTQRSYYPLYPPQEDMAIDYESFYVYAQLPVTPDVLIIPSELRYFVKDVLGCVCVNPGRLTKGQVGGTFARLYLRRPAADGAERQSPCIAVQVVRI", "notes": "POLA2, human; stood in the assay as a subunit of m18"}, "B3": {"name": "PRIM1 (human primase catalytic subunit) (natural protein)", "chain": "METFDPTELPELLKLYYRRLFPYSQYYRWLNYGGVIKNYFQHREFSFTLKDDIYIRYQSFNNQSDLEKEMQKMNPYKIDIGAVYSHRPNQHNTVKLGAFQAQEKELVFDIDMTDYDDVRRCCSSADICPKCWTLMTMAIRIIDRALKEDFGFKHRLWVYSGRRGVHCWVCDESVRKLSSAVRSGIVEYLSLVKGGQDVKKKVHLSEKIHPFIRKSINIIKKYFEEYALVNQDILENKESWDKILALVPETIHDELQQSFQKSHNSLQRWEHLKKVASRYQNNIKNDKYGPWLEWEIMLQYCFPRLDINVSKGINHLLKSPFSVHPKTGRISVPIDLQKVDQFDPFTVPTISFICRELDAISTNEEEKEENEAESDVKHRTRDYKKTSLAPYVKVFEHFLENLDKSRKGELLKKSDLQKDF", "notes": "PRIM1, human; modelled residues 9-349 and 386-408; stood in the assay as a subunit of m18"}}, "experiment_in_all_cases": "cryo-EM structure; human replisome: 150 nM CMG on fork DNA (60 nt or 15 nt 5′ flap) with 1.5-fold molar excess of AND-1, TIMELESS-TIPIN, CLASPIN and Pol α-primase; 25 mM HEPES-NaOH pH 7.6, 150 mM NaOAc, 0.5 mM TCEP, 500 μM AMP-PNP, 10 mM Mg(OAc)2, on ice; 10-30% glycerol gradient with glutaraldehyde and BS3 cross-linkers", "conditions_in_all_cases": "both partners purified", "key": {"[1]": {"target": "T1, human CMG (CDC45-MCM-GINS) replicative helicase (human, UniProt O75419 1-566; P49736 1-904; P25205 1-808; P33991 1-863; P33992 1-734; Q14566 …)", "T1 construct": "CDC45, human; MCM2, human; MCM3, human; MCM4, human; MCM5, human; MCM6, human; MCM7, human; PSF1, subunit of GINS, human; PSF2, subunit of GINS, human; PSF3, subunit of GINS, human; SLD5, subunit of GINS, human; the subunits are named in the methods for the MCM3-4A form, which was made as the wild type; copies: + + + + + + + + + +"}, "[2]": {"target": "T2, POLA1 (human Pol α catalytic subunit) (human, UniProt P09884 1-1462)", "T2 construct": "POLA1, human; modelled residues 1279-1445 and 1448-1458 (CTD); stood in the assay as a subunit of m18; also called POLA1CTD; POLA1_(exo-cat)", "T2 sequence": "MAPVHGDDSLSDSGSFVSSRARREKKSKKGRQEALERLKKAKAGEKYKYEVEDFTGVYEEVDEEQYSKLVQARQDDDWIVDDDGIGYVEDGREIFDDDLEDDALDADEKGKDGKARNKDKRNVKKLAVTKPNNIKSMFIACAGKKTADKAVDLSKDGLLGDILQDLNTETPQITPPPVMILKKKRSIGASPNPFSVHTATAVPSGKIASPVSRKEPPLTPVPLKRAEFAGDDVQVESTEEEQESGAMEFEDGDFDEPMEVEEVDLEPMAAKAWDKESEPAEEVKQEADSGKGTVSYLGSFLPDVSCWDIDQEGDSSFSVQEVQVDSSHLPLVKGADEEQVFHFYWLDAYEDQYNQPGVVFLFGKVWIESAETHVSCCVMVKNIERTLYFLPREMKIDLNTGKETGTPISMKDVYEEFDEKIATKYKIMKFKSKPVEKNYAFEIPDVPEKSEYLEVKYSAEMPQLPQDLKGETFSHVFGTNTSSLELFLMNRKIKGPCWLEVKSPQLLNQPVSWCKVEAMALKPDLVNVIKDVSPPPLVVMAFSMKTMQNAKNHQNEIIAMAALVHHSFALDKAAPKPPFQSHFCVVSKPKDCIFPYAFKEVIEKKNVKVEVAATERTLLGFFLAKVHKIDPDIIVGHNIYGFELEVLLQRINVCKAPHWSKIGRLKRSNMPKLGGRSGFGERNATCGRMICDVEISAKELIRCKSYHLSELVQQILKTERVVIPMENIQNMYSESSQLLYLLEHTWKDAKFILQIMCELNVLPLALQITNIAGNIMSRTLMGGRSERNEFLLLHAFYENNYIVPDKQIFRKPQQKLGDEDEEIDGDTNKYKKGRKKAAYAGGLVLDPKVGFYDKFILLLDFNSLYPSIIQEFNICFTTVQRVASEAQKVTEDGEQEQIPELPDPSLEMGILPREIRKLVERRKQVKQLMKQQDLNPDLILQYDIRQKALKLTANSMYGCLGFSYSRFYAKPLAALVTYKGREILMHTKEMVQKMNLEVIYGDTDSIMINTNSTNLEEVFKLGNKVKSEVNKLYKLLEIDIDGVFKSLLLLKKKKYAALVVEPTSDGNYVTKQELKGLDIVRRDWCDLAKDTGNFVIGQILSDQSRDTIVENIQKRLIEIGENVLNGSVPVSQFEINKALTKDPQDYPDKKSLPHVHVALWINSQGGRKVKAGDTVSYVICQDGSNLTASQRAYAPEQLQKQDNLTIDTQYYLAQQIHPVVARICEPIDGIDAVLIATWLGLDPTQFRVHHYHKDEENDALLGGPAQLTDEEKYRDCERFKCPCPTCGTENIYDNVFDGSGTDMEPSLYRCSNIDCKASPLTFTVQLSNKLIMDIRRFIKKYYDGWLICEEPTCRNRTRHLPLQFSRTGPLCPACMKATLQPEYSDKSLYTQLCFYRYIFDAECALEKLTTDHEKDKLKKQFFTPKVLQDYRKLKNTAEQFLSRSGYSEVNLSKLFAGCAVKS"}, "[3]": {"target": "T3, PRIM2 (human primase accessory subunit) (human, UniProt P49643 1-509)", "T3 construct": "PRIM2, human; modelled residues 1-5 (N terminus) and 17-252 (NTD); stood in the assay as a subunit of m18; also called PRIM2NTD; PRIM2_(Nterm)", "T3 sequence": "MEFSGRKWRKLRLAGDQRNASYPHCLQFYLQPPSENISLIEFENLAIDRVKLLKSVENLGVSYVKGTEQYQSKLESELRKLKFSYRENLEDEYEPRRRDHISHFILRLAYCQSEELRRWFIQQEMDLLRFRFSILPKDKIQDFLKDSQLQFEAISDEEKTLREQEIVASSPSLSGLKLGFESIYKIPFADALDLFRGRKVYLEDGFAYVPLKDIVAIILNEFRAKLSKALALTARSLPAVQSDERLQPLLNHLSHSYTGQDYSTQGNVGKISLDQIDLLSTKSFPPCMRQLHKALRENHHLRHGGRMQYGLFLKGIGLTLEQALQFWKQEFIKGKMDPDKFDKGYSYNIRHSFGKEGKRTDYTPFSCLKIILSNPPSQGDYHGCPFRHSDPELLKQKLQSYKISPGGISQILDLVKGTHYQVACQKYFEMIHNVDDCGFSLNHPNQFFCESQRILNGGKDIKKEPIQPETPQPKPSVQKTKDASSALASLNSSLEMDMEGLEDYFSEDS"}}}
{"binder": "B1", "values": [{"measurement": "binding result", "setting": "[1]", "value": "binds"}]}
{"binder": "B2", "values": [{"measurement": "binding result", "setting": "[2]", "value": "binds"}]}
{"binder": "B3", "values": [{"measurement": "binding result", "setting": "[3]", "value": "binds"}]}
